Test results: PMC4906247

Assays:
[1] = target: calcium/calmodulin on Sepharose 4B (Sepharose 4B-CaM) (UniProt P0DP23); assay: pull-down; CaM pull-down of purified hDAPK2 variants, SDS-PAGE with Coomassie blue staining, three repetitions
[2] = target: hDAPK2 CD + ARD BL mutant (Arg47, Arg50, Arg53, Arg54 to glutamate) (human); assay: SAXS; EMBL P12 (PETRA-III), 2.0-15.0 mg/ml, 283 K; monomer/dimer equilibrium mixture fitted (OLIGOMER)
[3] = target: CrAsH-tagged calmodulin, calcium-bound (Ca^2+/CrAsH-CaM) (UniProt P0DP23); assay: fluorescence polarisation; fluorescence anisotropy, purified hDAPK2 CD + ARD variants titrated against Ca2+/CrAsH-CaM; KD estimated by non-linear regression, one-site specific binding (Prism), three experiments
[4] = target: hDAPK2 CD + ARD W305D, BiFC construct (human); assay: split reporter (BiFC, NanoBiT); bimolecular fluorescence complementation in HEK293T cells, readout normalized to protein expression; endogenous Ca2+/CaM present
[5] = target: calcium/calmodulin on Sepharose 4B (Sepharose 4B-CaM) (UniProt P0DP23); assay: pull-down; CaM pull-down of hDAPK2 variants from transfected HEK293T cells on Sepharose 4B-CaM, EGTA-mediated elution, western blot, three replicates

| Substance | Kd [3] [nM] | other results |
| --- | --- | --- |
| hDAPK2 CD + ARD BL mutant (Arg47, Arg50, Arg53, Arg54 to glutamate) (domain or fragment) |  | percent of the Ca2+/CaM binding of WT [1]: 46 % of WT; percent monomer [2]: 89% |
| hDAPK2 CD + ARD S308A, D220K (domain or fragment) | < 3.5 |  |
| hDAPK2 CD + ARD S308A, L226R (domain or fragment) | < 3.5 |  |
| hDAPK2 CD + ARD W305D, BiFC construct (domain or fragment) |  | fold increase of the BiFC signal [4]: > 5 fold |
| hDAPK2 CD + ARD W305D, D220K (domain or fragment) | 9700 |  |
| hDAPK2 CD + ARD W305D, L226R (domain or fragment) | 2700 |  |
| hDAPK2 W305D D220K mutant expressed in HEK293T cells (CaM pull-down from lysate) (natural protein) |  | fold increase of Ca2+/CaM binding against hDAPK2 W305D [5]: 2 fold |
